Laboratory results published in patent US20230193513A1 (published 2023).

Molecular target: T1, flag-GLP1R-GFP expressed on CHO cells (UniProt P43220 24-463)
T1 chain: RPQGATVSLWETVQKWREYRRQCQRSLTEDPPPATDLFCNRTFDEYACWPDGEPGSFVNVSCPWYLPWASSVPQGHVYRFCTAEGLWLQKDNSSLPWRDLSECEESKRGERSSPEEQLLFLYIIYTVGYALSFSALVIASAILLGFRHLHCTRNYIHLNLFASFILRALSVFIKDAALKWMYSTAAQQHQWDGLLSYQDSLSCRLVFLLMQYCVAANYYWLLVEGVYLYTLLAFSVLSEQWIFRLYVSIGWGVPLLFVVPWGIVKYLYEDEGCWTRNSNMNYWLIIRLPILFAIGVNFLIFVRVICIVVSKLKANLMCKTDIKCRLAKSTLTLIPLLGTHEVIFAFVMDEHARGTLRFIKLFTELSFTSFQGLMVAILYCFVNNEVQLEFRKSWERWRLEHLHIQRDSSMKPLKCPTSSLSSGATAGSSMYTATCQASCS
Assay: FACS cell binding

B1: GLP1R-242 (antibody)
heavy: QVQLVQSGAEVKKPGSSVKVSCKASGGTFSSYEISWVRQAPGQGLEWMGGIIPILGIANYAQKFQGRVTITADESTSTAYMELSSLRSEDTAVYYCAKHMSMQADTGTFTSDVSSYLEGQAAKEFIAWLVKGEFSSRADLVGDAFDVWGQGTLVTVSSASASTKGPSVFPLAPCSRSTSESTAALGCLVKDYFPEPVTVSWNSGALTSGVHTFPAVLQSSGLYSLSSVVTVPSSNFGTQTYTCNVDHKPSNTKVDKTVERKCCVECPPCPAPPVAGPSVFLFPPKPKDTLMISRTPEVTCVVVDVSHEDPEVQFNWYVDGVEVHNAKTKPREEQFNSTFRVVSVLTVVHQDWLNGKEYKCKVSNKGLPAPIEKTISKTKGQPREPQVYTLPPSREEMTKNQVSLTCLVKGFYPSDIAVEWESNGQPENNYKTTPPMLDSDGSFFLYSKLTVDKSRWQQGNVFSCSVMHEALHNHYTQKSLSLSPG
light: QSVLTQPPSVSAAPGQKVTISCSGSSSNIENNDVSWYQQLPGTAPKLLIYGNDQRPSGIPDRFSGSKSGTSATLGITGLQTGDEADYYCGTWDNTLSAGVFGGGTKLTVLGQPKAAPSVTLFPPSSEELQANKATLVCLISDFYPGAVTVAWKADSSPVKAGVETTTPSKQSNNKYAASSYLSLTPEQWKSHRSYSCQVTHEGSTVEKTVAPTECS
- EC50: 27.7 nM
